Source: the supplement of paper PMC5998384

Test system: HeLa Kyoto
Assay: thermal stability score vs G1/S (z-score of summed log2 fold changes over temperatures); higher = more thermally stable than in G1/S
[1] = cell cycle stage: early G1 (4.5 h after nocodazole release)
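Also: synchronized HeLa Kyoto cells, proteins quantified by TMT10plex mass spectrometry, three biological replicates, mitosis taken 0.5 h after nocodazole release, G1/S directly after double thymidine block.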

Chain of MARK3 (chain, as listed by the source): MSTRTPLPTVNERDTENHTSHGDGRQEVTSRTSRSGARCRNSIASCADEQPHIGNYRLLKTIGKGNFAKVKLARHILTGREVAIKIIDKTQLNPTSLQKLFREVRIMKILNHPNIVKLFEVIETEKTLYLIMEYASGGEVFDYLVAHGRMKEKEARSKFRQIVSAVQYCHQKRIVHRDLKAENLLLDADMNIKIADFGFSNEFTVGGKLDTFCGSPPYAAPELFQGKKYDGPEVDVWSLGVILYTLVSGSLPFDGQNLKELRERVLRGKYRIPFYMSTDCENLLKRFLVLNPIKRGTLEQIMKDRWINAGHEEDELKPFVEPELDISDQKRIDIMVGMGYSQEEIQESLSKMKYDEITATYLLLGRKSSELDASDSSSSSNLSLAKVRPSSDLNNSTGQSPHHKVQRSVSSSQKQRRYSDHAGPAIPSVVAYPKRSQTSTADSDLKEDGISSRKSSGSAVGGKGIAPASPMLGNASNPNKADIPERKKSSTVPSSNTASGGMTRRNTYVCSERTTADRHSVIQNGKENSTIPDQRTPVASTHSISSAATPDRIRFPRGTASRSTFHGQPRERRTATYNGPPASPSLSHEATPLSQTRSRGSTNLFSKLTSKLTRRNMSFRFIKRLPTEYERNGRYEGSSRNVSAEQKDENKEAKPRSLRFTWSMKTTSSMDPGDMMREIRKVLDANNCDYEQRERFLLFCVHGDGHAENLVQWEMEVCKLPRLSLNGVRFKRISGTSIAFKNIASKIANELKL

MAAPLVLVLVVAVTVRAALFRSSLAEFISERVEVVSPLSSWKRVVEGLSLLDLGVSPYSGAVFHETPLIIYLFHFLIDYAELVFMITDALTAIALYFAIQDFNKVVFKKQKLLLELDQYAPDVAELIRTPMEMRYIPLKVALFYLLNPYTILSCVAKSTCAINNTLIAFFILTTIKGSAFLSAIFLALATYQSLYPLTLFVPGLLYLLQRQYIPVKMKSKAFWIFSWEYAMMYVGSLVVIICLSFFLLSSWDFIPAVYGFILSVPDLTPNIGLFWYFFAEMFEHFSLFFVCVFQINVFFYTIPLAIKLKEHPIFFMFIQIAVIAIFKSYPTVGDVALYMAFFPVWNHLYRFLRNIFVLTCIIIVCSLLFPVLWHLWIYAGSANSNFFYAITLTFNVGQILLISDYFYAFLRREYYLTHGLYLTAKDGTEAMLVLK [PIGU]
thermal stability score [1]: 0.038 | thermal stability score (cell cycle stage: mitosis): -0.34

MAKVSVLNVAVLENPSPFHSPFRFEISFECSEALADDLEWKIIYVGSAESEEFDQILDSVLVGPVPAGRHMFVFQADAPNPSLIPETDAVGVTVVLITCTYHGQEFIRVGYYVNNEYLNPELRENPPMKPDFSQLQRNILASNPRVTRFHINWDNNMDRLEAIETQDPSLGCGLPLNCTPIKGLGLPGCIPGLLPENSMDCI [ASF1B]
thermal stability score [1]: -3.88 | thermal stability score (cell cycle stage: mitosis): -1.16

MARK3
thermal stability score [1]: -0.371 | thermal stability score (cell cycle stage: mitosis): 0.161

MARKALKLASWTSMALAASGIYFYSNKYLDPNDFGAVRVGRAVATTAVISYDYLTSLKSVPYGSEEYLQLRSKSWPVFLQVHLRSARRLCELCCANRGTFIKVGQHLGALDYLLPEEYTSTLKVLHSQAPQSSMQEIRQVIREDLGKEIHDLFQSFDDTPLGTASLAQVHKAVLHDGRTVAVKVQHPKVRAQSSKDILLMEVLVLAVKQLFPEFEFMWLVDEAKKNLPLELDFLNEGRNAEKVSQMLRHFDFLKVPRIHWDLSTERVLLMEFVDGGQVNDRDYMERNKIDVNEISRHLGKMYSEMIFVNGFVHCDPHPGNVLVRKHPGTGKAEIVLLDHGLYQMLTEEFRLNYCHLWQSLIWTDMKRVKEYSQRLGAGDLYPLFACMLTARSWDSVNRGISQAPVTATEDLEIRNNAANYLPQISHLLNHVPRQMLLILKTNDLLRGIEAALGTRASASSFLNMSRCCIRALAEHKKKNTCSFFRRTQISFSEAFNLWQINLHELILRVKGLKLADRVLALICWLFPAPL [ADCK1]
thermal stability score [1]: 0.277 | thermal stability score (cell cycle stage: mitosis): -0.197

MAVPGCNKDSVRAGCKKCGYPGHLTFECRNFLRVDPKRDIVLDVSSTSSEDSDEENEELNKLQALQEKRINEEEEKKKEKSKEKIKLKKKRKRSYSSSSTEEDTSKQKKQKYQKKEKKKEKKSKSKKGKHHKKEKKKRKKEKHSSTPNSSEFSRK [SREK1IP1]
thermal stability score [1]: -0.6 | thermal stability score (cell cycle stage: mitosis): -4.29

MCFSFIMPPAMADILDIWAVDSQIASDGSIPVDFLLPTGIYIQLEVPREATISYIKQMLWKQVHNYPMFNLLMDIDSYMFACVNQTAVYEELEDETRRLCDVRPFLPVLKLVTRSCDPGEKLDSKIGVLIGKGLHEFDSLKDPEVNEFRRKMRKFSEEKILSLVGLSWMDWLKQTYPPEHEPSIPENLEDKLYGGKLIVAVHFENCQDVFSFQVSPNMNPIKVNELAIQKRLTIHGKEDEVSPYDYVLQVSGRVEYVFGDHPLIQFQYIRNCVMNRALPHFILVECCKIKKMYEQEMIAIEAAINRNSSNLPLPLPPKKTRIISHVWENNNPFQIVLVKGNKLNTEETVKVHVRAGLFHGTELLCKTIVSSEVSGKNDHIWNEPLEFDINICDLPRMARLCFAVYAVLDKVKTKKSTKTINPSKYQTIRKAGKVHYPVAWVNTMVFDFKGQLRTGDIILHSWSSFPDELEEMLNPMGTVQTNPYTENATALHVKFPENKKQPYYYPPFDKIIEKAAEIASSDSANVSSRGGKKFLPVLKEILDRDPLSQLCENEMDLIWTLRQDCREIFPQSLPKLLLSIKWNKLEDVAQLQALLQIWPKLPPREALELLDFNYPDQYVREYAVGCLRQMSDEELSQYLLQLVQVLKYEPFLDCALSRFLLERALGNRRIGQFLFWHLRSEVHIPAVSVQFGVILEAYCRGSVGHMKVLSKQVEALNKLKTLNSLIKLNAVKLNRAKGKEAMHTCLKQSAYREALSDLQSPLNPCVILSELYVEKCKYMDSKMKPLWLVYNNKVFGEDSVGVIFKNGDDLRQDMLTLQMLRLMDLLWKEAGLDLRMLPYGCLATGDRSGLIEVVSTSETIADIQLNSSNVAAAAAFNKDALLNWLKEYNSGDDLDRAIEEFTLSCAGYCVASYVLGIGDRHSDNIMVKKTGQLFHIDFGHILGNFKSKFGIKRERVPFILTYDFIHVIQQGKTGNTEKFGRFRQCCEDAYLILRRHGNLFITLFALMLTAGLPELTSVKDIQYLKDSLALGKSEEEALKQFKQKFDEALRESWTTKVNWMAHTVRKDYRS [PIK3CB]
thermal stability score [1]: 0.304 | thermal stability score (cell cycle stage: mitosis): 0.592

MEINTKLLISVTCISFFTFQLLFYFVSYWFSAKVSPGFNSLSFKKKIEWNSRVVSTCHSLVVGIFGLYIFLFDEATKADPLWGGPSLANVNIAIASGYLISDLSIIILYWKVIGDKFFIMHHCASLYAYYLVLKNGVLAYIGNFRLLAELSSPFVNQRWFFEALKYPKFSKAIVINGILMTVVFFIVRIASMLPHYGFMYSVYGTEPYIRLGVLIQLSWVISCVVLDVMNVMWMIKISKGCIKVISHIRQEKAKNSLQNGKLD [TMEM56]
thermal stability score [1]: 0.000211 | thermal stability score (cell cycle stage: mitosis): -0.867

MFPREKTWNISFAGCGFLGVYYVGVASCLREHAPFLVANATHIYGASAGALTATALVTGVCLGEAGAKFIEVSKEARKRFLGPLHPSFNLVKIIRSFLLKVLPADSHEHASGRLGISLTRVSDGENVIISHFNSKDELIQANVCSGFIPVYCGLIPPSLQGVRYVDGGISDNLPLYELKNTITVSPFSGESDICPQDSSTNIHELRVTNTSIQFNLRNLYRLSKALFPPEPLVLREMCKQGYRDGLRFLQRNGLLNRPNPLLALPPARPHGPEDKDQAVESAQAEDYSQLPGEDHILEHLPARLNEALLEACVEPTDLLTTLSNMLPVRLATAMMVPYTLPLESALSFTIRLLEWLPDVPEDIRWMKEQTGSICQYLVMRAKRKLGRHLPSRLPEQVELRRVQSLPSVPLSCAAYREALPGWMRNNLSLGDALAKWEECQRQLLLGLFCTNVAFPPEALRMRAPADPAPAPADPASPQHQLAGPAPLLSTPAPEARPVIGALGL [PNPLA2]
thermal stability score [1]: -0.911 | thermal stability score (cell cycle stage: mitosis): 1.32

MGPEALSSLLLLLLVASGDADMKGHFDPAKCRYALGMQDRTIPDSDISASSSWSDSTAARHSRLESSDGDGAWCPAGSVFPKEEEYLQVDLQRLHLVALVGTQGRHAGGLGKEFSRSYRLRYSRDGRRWMGWKDRWGQEVISGNEDPEGVVLKDLGPPMVARLVRFYPRADRVMSVCLRVELYGCLWRDGLLSYTAPVGQTMYLSEAVYLNDSTYDGHTVGGLQYGGLGQLADGVVGLDDFRKSQELRVWPGYDYVGWSNHSFSSGYVEMEFEFDRLRAFQAMQVHCNNMHTLGARLPGGVECRFRRGPAMAWEGEPMRHNLGGNLGDPRARAVSVPLGGRVARFLQCRFLFAGPWLLFSEISFISDVVNNSSPALGGTFPPAPWWPPGPPPTNFSSLELEPRGQQPVAKAEGSPTAILIGCLVAIILLLLLIIALMLWRLHWRRLLSKAERRVLEEELTVHLSVPGDTILINNRPGPREPPPYQEPRPRGNPPHSAPCVPNGSALLLSNPAYRLLLATYARPPRGPGPPTPAWAKPTNTQAYSGDYMEPEKPGAPLLPPPPQNSVPHYAEADIVTLQGVTGGNTYAVPALPPGAVGDGPPRVDFPRSRLRFKEKLGEGQFGEVHLCEVDSPQDLVSLDFPLNVRKGHPLLVAVKILRPDATKNARNDFLKEVKIMSRLKDPNIIRLLGVCVQDDPLCMITDYMENGDLNQFLSAHQLEDKAAEGAPGDGQAAQGPTISYPMLLHVAAQIASGMRYLATLNFVHRDLATRNCLVGENFTIKIADFGMSRNLYAGDYYRVQGRAVLPIRWMAWECILMGKFTTASDVWAFGVTLWEVLMLCRAQPFGQLTDEQVIENAGEFFRDQGRQVYLSRPPACPQGLYELMLRCWSRESEQRPPFSQLHRFLAEDALNTV [DDR1]
thermal stability score [1]: 0.0856 | thermal stability score (cell cycle stage: mitosis): 0.38

MGSQGSPVKSYDYLLKFLLVGDSDVGKGEILESLQDGAAESPYAYSNGIDYKTTTILLDGRRVKLELWDTSGQGRFCTIFRSYSRGAQGILLVYDITNRWSFDGIDRWIKEIDEHAPGVPRILVGNRLHLAFKRQVPTEQARAYAEKNCMTFFEVSPLCNFNVIESFTELSRIVLMRHGMEKIWRPNRVFSLQDLCCRAIVSCTPVHLIDKLPLPVTIKSHLKSFSMANGMNAVMMHGRSYSLASGAGGGGSKGNSLKRSKSIRPPQSPPQNCSRSNCKIS [RAB40C]
thermal stability score [1]: -0.589 | thermal stability score (cell cycle stage: mitosis): -0.612

MLLLVTSLLLCELPHPAFLLIPEKSDLRTVAPASSLNVRFDSRTMNLSWDCQENTTFSKCFLTDKKNRVVEPRLSNNECSCTFREICLHEGVTFEVHVNTSQRGFQQKLLYPNSGREGTAAQNFSCFIYNADLMNCTWARGPTAPRDVQYFLYIRNSKRRREIRCPYYIQDSGTHVGCHLDNLSGLTSRNYFLVNGTSREIGIQFFDSLLDTKKIERFNPPSNVTVRCNTTHCLVRWKQPRTYQKLSYLDFQYQLDVHRKNTQPGTENLLINVSGDLENRYNFPSSEPRAKHSVKIRAADVRILNWSSWSEAIEFGSDDGNLGSVYIYVLLIVGTLVCGIVLGFLFKRFLRIQRLFPPVPQIKDKLNDNHEVEDEIIWEEFTPEEGKGYREEVLTVKEIT [CSF2RA]
thermal stability score [1]: -1.1 | thermal stability score (cell cycle stage: mitosis): -1.35

MLRCGGRGLLLGLAVAAAAVMAARLMGWWGPRAGFRLFIPEELSRYRGGPGDPGLYLALLGRVYDVSSGRRHYEPGSHYSGFAGRDASRAFVTGDCSEAGLVDDVSDLSAAEMLTLHNWLSFYEKNYVCVGRVTGRFYGEDGLPTPALTQVEAAITRGLEANKLQLQEKQTFPPCNAEWSSARGSRLWCSQKSGGVSRDWIGVPRKLYKPGAKEPRCVCVRTTGPPSGQMPDNPPHRNRGDLDHPNLAEYTGCPPLAITCSFPL [CYB5D2]
thermal stability score [1]: 0.86 | thermal stability score (cell cycle stage: mitosis): -0.244

MRVLVGGGTGFIGTALTQLLNARGHEVTLVSRKPGPGRITWDELAASGLPSCDAAVNLAGENILNPLRRWNETFQKEVIGSRLETTQLLAKAITKAPQPPKAWVLVTGVAYYQPSLTAEYDEDSPGGDFDFFSNLVTKWEAAARLPGDSTRQVVVRSGVVLGRGGGAMGHMLLPFRLGLGGPIGSGHQFFPWIHIGDLAGILTHALEANHVHGVLNGVAPSSATNAEFAQTLGAALGRRAFIPLPSAVVQAVFGRQRAIMLLEGQKVIPQRTLATGYQYSFPELGAALKEIVA [SDR39U1]
thermal stability score [1]: -0.328 | thermal stability score (cell cycle stage: mitosis): -0.0339

MSEDEEKVKLRRLEPAIQKFIKIVIPTDLERLRKHQINIEKYQRCRIWDKLHEEHINAGRTVQQLRSNIREIEKLCLKVRKDDLVLLKRMIDPVKEEASAATAEFLQLHLESVEELKKQFNDEETLLQPPLTRSMTVGGAFHTTEAEASSQSLTQIYALPEIPQDQNAAESWETLEADLIELSQLVTDFSLLVNSQQEKIDSIADHVNSAAVNVEEGTKNLGKAAKYKLAALPVAGALIGGMVGGPIGLLAGFKVAGIAAALGGGVLGFTGGKLIQRKKQKMMEKLTSSCPDLPSQTDKKCS [STX17]
thermal stability score [1]: -0.17 | thermal stability score (cell cycle stage: mitosis): 0.13
